Test results: patent US6531296 (UNIVERSITY OF NORTH CAROLINA AT CHAPEL HILL, dated 2003)
Blank lines part the entries; values can stand above or below the binder they belong to.

Target: T1, Src protein (p60^src), in vitro translated (UniProt P12931 2-536, limits assumed)
T1 construct: also called c-Src
Experiment: in vitro translated Src on Rb-GST fusion proteins; data not shown
Description: The same procedure was followed for Rb in vitro binding assays, except that the Rb-GST fusion proteins were incubated in the in vitro translated forms of Rak in NP-40 buffer containing 0.5% fraction V bovine serum albumin (Boehringer Mannheim). After three washes with the same buffer, bound proteins were analyzed by SDS-PAGE and detected by autoradiography. Rak was in vitro translated using the TnT-coupled transcription/translation system (Promega) with 2 ug of the pAlt-Rak plasmid. The Rak (1–152) construct was prepared by digesting the pAlt-Rak plasmid with EcoRI to obtain the 5' EcoRI fragment of Rak.
An in vitro binding reaction was then used to further identify the essential components for the Rak-Rb interaction. In vitro translated Rak was incubated with two Rb-GST fusion proteins, where one encoded amino acids 379–928, spanning the A/B pocket and carboxy-terminus (RbABC), while the other fusion protein encoded amino acids 780–928, and represented only the carboxy-terminus (RbC). The in vitro translated full-length Rak protein bound efficiently to the RbABC fusion protein, and approximately 5-fold less to the RbC protein (FIG. 5B, upper panel). […] As a control, the Src protein was in vitro translated and subjected to the same binding reaction, and no binding of Src to any portion of Rb was detected (data not shown).

binding result: no binding
B1: GST-RbABC, Rb fusion protein encoding amino acids 379-928 (A/B pocket region and COOH-terminal domain) (other, UniProt P06400 379-928, looked up)
chain: MNTIQQLMMILNSASDQPSENLISYFNNCTVNPKESILKRVKDIGYIFKEKFAKAVGQGCVEIGSQRYKLGVRLYYRVMESMLKSEEERLSIQNFSKLLNDNIFHMSLLACALEVVMATYSRSTSQNLDSGTDLSFPWILNVLNLKAFDFYKVIESFIKAEGNLTREMIKHLERCEHRIMESLAWLSDSPLFDLIKQSKDREGPTDHLESACPLNLPLQNNHTAADMYLSPVRSPKKKGSTTRVNSTANAETQATSAFQTQKPLKSTSLSLFYKKVYRLAYLRLNTLCERLLSEHPELEHIIWTLFQHTLQNEYELMRDRHLDQIMMCSMYGICKVKNIDLKFKIIVTAYKDLPHAVQETFKRVLIKEEEYDSIIVFYNSVFMQRLKTNILQYASTRPPTLSPIPHIPRSPYKFPSSPLRIPGGNIYISPLKSPYKISEGLPTPTKMTPRSRILVSIGESFGTSEKFQKINQMVCNSDRVLKRSAEGSNPPKPLKKLRFDIEGSDEADGSKHLPGESKFQQKLAEMTSTRTRMQKQKMNDSMDTSNKEEK
notes: range 379-928; GST fusion prepared like the Rak fusions; also called RbABC fusion protein; Rb-GST fusion protein; not shown: Glutathione S-transferase encoded by the pGEX-4T plasmid (Pharmacia)

binding result: no binding
B2: GST-RbC, Rb fusion protein encoding amino acids 780-928 (COOH-terminal domain only) (other, UniProt P06400 780-928, looked up)
chain: SPIPHIPRSPYKFPSSPLRIPGGNIYISPLKSPYKISEGLPTPTKMTPRSRILVSIGESFGTSEKFQKINQMVCNSDRVLKRSAEGSNPPKPLKKLRFDIEGSDEADGSKHLPGESKFQQKLAEMTSTRTRMQKQKMNDSMDTSNKEEK
notes: range 780-928; GST fusion prepared like the Rak fusions; also called RbC protein; Rb-GST fusion protein; not shown: Glutathione S-transferase encoded by the pGEX-4T plasmid (Pharmacia)
